How the values were obtained:
[1] = biological target: T1, full length human TROP2 on 293F-TROP2 cells (human, UniProt P09758 27-323); assay: FACS on 293F-TROP2 cells, MFI
T1 construct: also called 293F-TROP2 cells (clone ID #3A8); cell surface TROP2
T1 sequence: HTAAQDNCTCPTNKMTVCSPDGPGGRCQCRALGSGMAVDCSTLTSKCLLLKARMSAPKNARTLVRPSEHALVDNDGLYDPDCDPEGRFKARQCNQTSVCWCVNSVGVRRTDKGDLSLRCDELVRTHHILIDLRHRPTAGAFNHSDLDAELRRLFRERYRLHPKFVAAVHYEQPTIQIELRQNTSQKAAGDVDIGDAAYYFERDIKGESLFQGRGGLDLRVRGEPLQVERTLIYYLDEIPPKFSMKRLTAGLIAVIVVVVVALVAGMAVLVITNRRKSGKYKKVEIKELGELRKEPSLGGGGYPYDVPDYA

[2] = biological target: T2, cynomolgus TROP2-his protein (cynomolgus monkey, UniProt P09758 27-272 (human entry), limits assumed); assay: indirect ELISA, cynomolgus TROP2-his coated at 2 ug/mL, OD(450-630)
T2 construct: no cleavage site is stated; also called Cynomolgus monkey TROP2-his protein; monkey TROP2
T2 chain: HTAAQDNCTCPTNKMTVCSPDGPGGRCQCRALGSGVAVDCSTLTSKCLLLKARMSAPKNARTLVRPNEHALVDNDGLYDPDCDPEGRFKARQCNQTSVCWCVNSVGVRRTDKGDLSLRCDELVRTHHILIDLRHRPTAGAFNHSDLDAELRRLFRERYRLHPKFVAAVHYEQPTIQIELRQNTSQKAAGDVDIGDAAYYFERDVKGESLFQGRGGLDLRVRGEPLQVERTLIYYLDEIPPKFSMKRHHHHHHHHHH
Procedure: The anti-TROP2 antibodies of the disclosure were tested for their cross-reaction with cynomolgus TROP2 proteins. Briefly, 96-well micro plates were coated with 100 μl 2 μg/ml cynomolgus TROP2-his proteins (prepared in-house with SEQ ID NO: 70) in carbonate/bicarbonate buffer (pH 9.6) overnight at 4° C. ELISA plates were washed once with wash buffer (PBS+0.05% v/v Tween-20, PBST) and then blocked with 200 μl/well blocking buffer (5% w/v non-fatty milk in PBST) for 2 hours at 37° C. […] After a final wash, plates were incubated with 100 μl/well TMB (Innoreagents) at room temperature. The reaction was stopped 3-10 minutes later at room temperature with 50 μl/well 1M H₂SO₄, and the absorbance of each well was read on a microplate reader using dual wavelength mode with 450 nm for TMB and 630 nm as the reference wavelength. The OD (450-630) values were plotted against antibody concentration. Data was analyzed using Graphpad Prism software and EC₅₀ values were reported.

[3] = biological target: T3, human TROP2-his protein (human, UniProt P09758 27-274); assay: SPR Biacore T200, mAb captured on anti-mouse IgG CM5 chip, TROP2-his analyte
T3 construct: Biotin-labelled in the ELISAs, unlabelled analyte in Biacore; also called biotin-labeled human TROP2-his protein; biotin human Trop2-his
T3 sequence: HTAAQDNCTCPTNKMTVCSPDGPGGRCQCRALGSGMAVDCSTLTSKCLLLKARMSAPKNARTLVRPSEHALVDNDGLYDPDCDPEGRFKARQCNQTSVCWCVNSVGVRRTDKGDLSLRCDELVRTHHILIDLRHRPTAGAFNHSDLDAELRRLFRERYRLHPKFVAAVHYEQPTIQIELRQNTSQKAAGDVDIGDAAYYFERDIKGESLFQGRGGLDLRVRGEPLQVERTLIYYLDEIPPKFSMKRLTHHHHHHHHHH
Procedure: (§1) Un-reacted moieties on the chip (biosensor) surface were blocked with ethanolamine. […] The antigen-antibody association kinetics was followed for 2 minutes and the dissociation kinetics was followed for 10 minutes. The association and dissociation curves were fit to a 1:1 Langmuir binding model using BIAcore evaluation software.

[4] = biological target: T2, cynomolgus TROP2-his protein; assay: as above
Procedure: as §1

[5] = biological target: T3, human TROP2-his protein; assay: SPR Biacore, antibody captured on anti-human IgG CM5 chip, TROP2-his analyte
Procedure: as §1

[6] = biological target: T2, cynomolgus TROP2-his protein; assay: as above
Procedure: as §1

[7] = biological target: T3, human TROP2-his protein; assay: capture ELISA, antibody captured on anti-human IgG Fc coat, biotin human TROP2-his in solution, OD(450-630)
Procedure: Plates were washed once with wash buffer (PBS+0.05% v/v Tween-20, PBST) and then blocked with 200 μl/well blocking buffer (5% w/v non-fatty milk in PBST) for 2 hours at 37° C. […] Plates containing captured anti-TROP2 antibodies were incubated with biotin-labeled human TROP2-his protein (prepared in house, SEQ ID NO: 67, 56.7 ng/mL in 2.5% w/v non-fatty milk in PBST, 100 μl/well) for 40 minutes at 37° C., washed 4 times, and incubated with streptavidin conjugated HRP (1:10000 dilution in PBST, Jackson Immuno Research, Cat #016-030-084, 100 μl/well) for 40 minutes at 37° C. After a final wash, plates were incubated with 100 μl/well ELISA substrate TMB (Innoreagents, Cat #TMB-S-002) at room temperature. The reaction was stopped in 3-10 minutes at room temperature with 50 μl/well 1M H₂SO₄, and the absorbance of each well was read on a microplate reader using dual wavelength mode with 450 nm for TMB and 630 nm as the reference wavelength. The OD (450-630) values were plotted against antibody concentration. Data was analyzed using Graphpad Prism software and EC₅₀ values were reported.
For the Capture ELISA, AffiniPure F(ab′)₂ Fragment Goat Anti-Human IgG, Fcγ fragment specific (Jackson Immunoresearch, Cat #109-006-008) was used instead of AffiniPure Goat Anti-Mouse IgG, Fcγ fragment specific, 100 μl/well.

[8] = biological target: T3, human TROP2-his protein; assay: competitive ELISA: BM1 coated, antibody premixed with biotin human TROP2-his; blocked: binding of TROP2-his to coated BM1; partial only: OD falls from about 1.9 to a plateau of about 1.3

B1: mouse antibody C1B3B12D2 (antibody, V domains shown)
VH: QVQLQQSGPELVRPGTSVKMSCKAAGYTFTKFWIGWVKQRPGHGLEWIGNIYPGGAYINYNENFKGKATLTADTFSSTAYMQLNSLTSADSAIYYCAREGSSGYWGQGTTLTVSS
VL: DIVMTQSPSSLTVTAGEKVTLSCKCSQSLLNSGTQENYLTWYQQKPGQPPKMLIYWASIREPGVPDRFTGSGSGTDFTLTINNVQAEDLAVYYCQHDYSYPFTFGSGTKLEIK
notes: Mouse monoclonal IgG purified from hybridoma supernatant
EC50 [1]: 0.636 nM
EC50 (read off the curve) [2]: ~0.6 nM
Kd [3]: 0.00136 nM
koff [3]: 6.45e-07 s⁻¹
kon [3]: 476000 M⁻¹ s⁻¹
Kd [4]: 0.00186 nM
koff [4]: 9.44e-07 s⁻¹
kon [4]: 508000 M⁻¹ s⁻¹

B2: mouse antibody A1E11A12D1 (antibody, V domains shown)
VH: QVQLQQSGAELARPGASVKLSCMASGYTFTTYGISWVRQRTGQGLEWIGQIYPGSDYSYCDEDFKGKATLTADKSSSTAYMQLSSLTSEDSAVYFCARASYFDYWGQGTTLTVSS
VL: DILLTQSPAILSVSPGERVSFSCRASQTIGTAIHWYQQRANGSPRLLIKYASESISGIPSRFSGSGSGTDFALSINTVESEDFAYYYCQQSNNWPFTFGGGTKLEIR
notes: as for B1
Kd [3]: 0.154 nM
koff [3]: 8.09e-05 s⁻¹
kon [3]: 525000 M⁻¹ s⁻¹
Kd [4]: 0.0563 nM
koff [4]: 3.82e-05 s⁻¹
kon [4]: 678000 M⁻¹ s⁻¹

B3: mouse antibody A1H3C5H8E12 (antibody, V domains shown)
VH: QVQLQQSGAELVRPGTSVKMSCKAAGYTFTNYWIDWVKQRPGHGLEWIGNIFPGGFYTNYNEKFKGKATLTADTSSSTAYMQLSSLTSEDSAIYYCARGGVFDYWGQGTTLTVSS
VL: DILLTQSPAILSVSPGERVSFSCRASQSIGTSIHWYQQRTNGSPRLLIKYASESISGIPSRFSGSGSGTDFTLSINSVESEDIADYYCQQSNSWPYTFGGGTKLEIK
notes: as for B1
Kd [3]: 1.81 nM
koff [3]: 0.000961 s⁻¹
kon [3]: 531000 M⁻¹ s⁻¹
Kd [4]: 1.12 nM
koff [4]: 0.000758 s⁻¹
kon [4]: 674000 M⁻¹ s⁻¹

B4: benchmark (in house prepared sacituzumab) (antibody, human IgG1, kappa, V domains shown)
VH: SVQLQQSGSELKKPGASVKVSCKASGYTFTNYGMNWVKQAPGQGLKWMGWINTYTGEPTYTDDFKGRFAFSLDTSVSTAYLQISSLKADDTAVYFCARGGFGSSYWYFDVWGQGSLVTVSS
VL: DIQLTQSPSSLSASVGDRVSITCKASQDVSIAVAWYQQKPGKAPKLLIYSASYRYTGVPDRFSGSGSGTDFTLTISSLQPEDFAVYYCQQHYITPLTFGAGTKVEIKR
notes: also called BM; BM1
EC50 [1]: 1.14 nM
EC50 [2]: 0.385 nM
Kd [5]: 0.983 nM
Kd [6]: 0.529 nM
EC50 [7]: 0.316 nM

B5: mouse antibody A1E4F7D4 (antibody, V domains shown)
VH: QVQLQQSGAELAKPGTSVKMSCEASGYSFTTHWIHWMKQRPGQGLEWIGTIFPSNAYAVYNQKFRDRAIMTADRSSTTAYIQLTGLTSEDSAVYYCARASYFDYWGQGTTLTVSS
VL: DILLTQSPATLSVSPGERVTFSCRASQNIGTSIHWFQQRTTGSPRLLIKYASESISGIPSRFSGSGSGTDFTLHINSVESEDIAHYYCQHSHSWPFTFGSGTKLEIQ
notes: Mouse monoclonal IgG purified from hybridoma supernatant; also called Mouse A1E4F7D4
EC50 [1]: 1.01 nM
koff [3]: ~4.7e-05 s⁻¹
kon [3]: 373000 M⁻¹ s⁻¹
koff [4]: ~4.54e-05 s⁻¹
kon [4]: 483000 M⁻¹ s⁻¹
IC50 [8]: 0.702 nM

B6: huA1E4F7D4-V16 (antibody, human IgG1, kappa, V domains shown)
VH: QVQLVQSGAEVKKPGASVKVSCKASGYSFTTHWIHWVRQAPGQGLEWIGTIFPSNAYAVYNQKFRDRATMTADTSISTAYIELSRLRSDDTAVYYCARASYFDYWGQGTTVTVSS
VL: EIVLTQSPATLSLSPGERATLSCRASQNIGTSIHWFQQKPGGAPRLLIKYASESISGIPSRFSGSGSGTDFTLTISSLEPEDFAVYYCQHSHSWPFTFGQGTKLEIKR
notes: Positions of the X residues are given in the claims; also called humanized antibody huA1E4F7D4-V16
Kd [5]: 0.183 nM
koff [5]: 0.000195 s⁻¹
kon [5]: 1.06e+06 M⁻¹ s⁻¹
Kd [6]: 0.132 nM
koff [6]: 0.000164 s⁻¹
kon [6]: 1.25e+06 M⁻¹ s⁻¹
EC50 [7]: 0.054 nM
IC50 [8]: 0.353 nM

— patent US20240207432A1 (BIOSION, published 2024)
